Data on 42 variants can be found in the Human Domainome abundance scans (Beltran et al. 2025).

To fix the notation:
B1: RNA-binding E3 ubiquitin-protein ligase MEX3C, residues 325 to 391; numbered along this chain, Q5U5Q3 (parent)
chain: GQTTVQVRVPYRVVGLVVGPKGATIKRIQQQTHTYIVTPSRDKEPVFEVTGMPENVDRAREEIEMHI

± gives the uncertainty stated by the source.

In the series the parent is B1. Nature of the series: abundance fitness (aPCA) (normalised: wild type 0, dead -1); higher = more abundant; growth selection in yeast, the domain comes from the species named. The conditions noted are these: Homo sapiens.
With GQTTVQVRVPYRVVGLVVGPKGATIKRIQQQTHTYIVTPSRDKEPVFEVTGMPENVDRAREEIEMKI [H66K], the abundance fitness was -0.039 ± 0.12.
The same measure for GQTTVQVRVPYRVVGLVVGPKGATIKRIQQQTHTYIVTPSRDKEPVFEVTGMPENVDRAREEIEMCI [H66C]: 0.089 ± 0.099; for GQTTVQVRVPYRVVGLVVGPKGATIKRIQQQTHTYIVTPSRDKEPVFEVTGMPENVDRAREEIEMEI [H66E]: -0.143 ± 0.14; for GQTTVQVRVPYRVVGLVVGPKGATIKRIQQQTHTYIVTPSRDKEPVFEVTGMPENVDRAREEIEMWI [H66W]: -0.079 ± 0.09.
The same measure for GQTTVQVRVPYRVVGLVVGPKGATIKRIQQQTHTYIVTPSRDKEPVFEVTGMPENVDRAREEIEMRI [H66R]: 0.178 ± 0.06.
Turning to GQTTVQVRVPYRVVGLVVGPKGATIKRIQQQTHTYIVTPSRDKEPVFEVTGMPENVDRAREEIEMDI [H66D], the abundance fitness is -0.625 ± 0.17.
With GQTTVQVRVPYRVVGLVVGPKGATIKRIQQQTHTYIVTPSRDKEPVFEVTGMPENVDRAREEIEMTI [H66T] the figure was 0.198 ± 0.1; with GQTTVQVRVPYRVVGLVVGPKGATIKRIQQQTHTYIVTPSRDKEPVFEVTGMPENVDRAREEIEMGI [H66G], -0.465 ± 0.1; with GQTTVQVRVPYRVVGLVVGPKGATIKRIQQQTHTYIVTPSRDKEPVFEVTGMPENVDRAREEIEMLI [H66L], 0.282 ± 0.073.
Consider GQTTVQVRVPYRVVGLVVGPKGATIKRIQQQTHTYIVTPSRDKEPVFEVTGMPENVDRAREEIEMII [H66I], for which the abundance fitness is 0.404 ± 0.23.
With GQTTVQVRVPYRVVGLVVGPKGATIKRIQQQTHTYIVTPSRDKEPVFEVTGMPENVDRAREEIEMQI [H66Q], the abundance fitness came out at 0.166 ± 0.12.
With GQTTVQVRVPYRVVGLVVGPKGATIKRIQQQTHTYIVTPSRDKEPVFEVTGMPENVDRAREEIEMFI [H66F] the figure was 0.135 ± 0.14; with GQTTVQVRVPYRVVGLVVGPKGATIKRIQQQTHTYIVTPSRDKEPVFEVTGMPENVDRAREEIEMSI [H66S], -0.336 ± 0.092; with GQTTVQVRVPYRVVGLVVGPKGATIKRIQQQTHTYIVTPSRDKEPVFEVTGMPENVDRAREEIEMYI [H66Y], 0.11 ± 0.095.
The same measure for GQTTVQVRVPYRVVGLVVGPKGATIKRIQQQTHTYIVTPSRDKEPVFEVTGMPENVDRAREEIEMPI [H66P]: -0.88 ± 0.21; for GQTTVQVRVPYRVVGLVVGPKGATIKRIQQQTHTYIVTPSRDKEPVFEVTGMPENVDRAREEIEMVI [H66V]: 0.286 ± 0.093.
The same measure for GQTTVQVRVPYRVVGLVVGPKGATIKRIQQQTHTYIVTPSRDKEPVFEVTGMPENVDRAREEITMHI [E64T]: -0.779 ± 0.42; for GQTTVQVRVPYRVVGLVVGPKGATIKRIQQQTHTYIVTPSRDKEPVFEVTGMPENVDRAREEILMHI [E64L]: 0.056 ± 0.057; for GQTTVQVRVPYRVVGLVVGPKGATIKRIQQQTHTYIVTPSRDKEPVFEVTGMPENVDRAREEISMHI [E64S]: -0.281 ± 0.081.
GQTTVQVRVPYRVVGLVVGPKGATIKRIQQQTHTYIVTPSRDKEPVFEVTGMPENVDRAREEIWMHI [E64W]: the abundance fitness was -0.179 ± 0.07.
For the variant GQTTVQVRVPYRVVGLVVGPKGATIKRIQQQTHTYIVTPSRDKEPVFEVTGMPENVDRAREEIVMHI [E64V], the abundance fitness was -0.66 ± 0.11.
Take GQTTVQVRVPYRVVGLVVGPKGATIKRIQQQTHTYIVTPSRDKEPVFEVTGMPENVDRAREEIMMHI [E64M]: the abundance fitness was -0.006 ± 0.089.
With GQTTVQVRVPYRVVGLVVGPKGATIKRIQQQTHTYIVTPSRDKEPVFEVTGMPENVDRAREEIPMHI [E64P] the figure was -0.435 ± 0.16.
On to GQTTVQVRVPYRVVGLVVGPKGATIKRIQQQTHTYIVTPSRDKEPVFEVTGMPENVDRAREEIYMHI [E64Y], for which the abundance fitness is -0.271 ± 0.16.
For GQTTVQVRVPYRVVGLVVGPKGATIKRIQQQTHTYIVTPSRDKEPVFEVTGMPENVDRAREEIEKHI [M65K], the abundance fitness amounted to 0.224 ± 0.06.
In the case of GQTTVQVRVPYRVVGLVVGPKGATIKRIQQQTHTYIVTPSRDKEPVFEVTGMPENVDRAREEIERHI [M65R], the abundance fitness amounted to 0.216 ± 0.05.
With GQTTVQVRVPYRVVGLVVGPKGATIKRIQQQTHTYIVTPSRDKEPVFEVTGMPENVDRAREEIENHI [M65N] the figure was 0.033 ± 0.18; with GQTTVQVRVPYRVVGLVVGPKGATIKRIQQQTHTYIVTPSRDKEPVFEVTGMPENVDRAREEIEAHI [M65A], 0.142 ± 0.06.
GQTTVQVRVPYRVVGLVVGPKGATIKRIQQQTHTYIVTPSRDKEPVFEVTGMPENVDRAREEIEQHI [M65Q]: the abundance fitness was determined as 0.225 ± 0.076.
Regarding GQTTVQVRVPYRVVGLVVGPKGATIKRIQQQTHTYIVTPSRDKEPVFEVTGMPENVDRAREEIEHHI [M65H], the abundance fitness was determined as 0.125 ± 0.084.
The same measure for GQTTVQVRVPYRVVGLVVGPKGATIKRIQQQTHTYIVTPSRDKEPVFEVTGMPENVDRAREEIETHI [M65T]: 0.004 ± 0.08.
The same measure for GQTTVQVRVPYRVVGLVVGPKGATIKRIQQQTHTYIVTPSRDKEPVFEVTGMPENVDRAREEIECHI [M65C]: -0.285 ± 0.11; for GQTTVQVRVPYRVVGLVVGPKGATIKRIQQQTHTYIVTPSRDKEPVFEVTGMPENVDRAREEIEWHI [M65W]: -0.184 ± 0.074.
Regarding GQTTVQVRVPYRVVGLVVGPKGATIKRIQQQTHTYIVTPSRDKEPVFEVTGMPENVDRAREEIEFHI [M65F], the abundance fitness was -0.264 ± 0.23.
As for GQTTVQVRVPYRVVGLVVGPKGATIKRIQQQTHTYIVTPSRDKEPVFEVTGMPENVDRAREEIEDHI [M65D], the abundance fitness was -0.223 ± 0.17.
On to GQTTVQVRVPYRVVGLVVGPKGATIKRIQQQTHTYIVTPSRDKEPVFEVTGMPENVDRAREEIEPHI [M65P], for which the abundance fitness is -0.699 ± 0.2.
For the variant GQTTVQVRVPYRVVGLVVGPKGATIKRIQQQTHTYIVTPSRDKEPVFEVTGMPENVDRAREEIEYHI [M65Y], the abundance fitness stood at 0.366 ± 0.11.
With GQTTVQVRVPYRVVGLVVGPKGATIKRIQQQTHTYIVTPSRDKEPVFEVTGMPENVDRAREEIELHI [M65L], the abundance fitness is -0.114 ± 0.054.
The same measure for GQTTVQVRVPYRVVGLVVGPKGATIKRIQQQTHTYIVTPSRDKEPVFEVTGMPENVDRAREEIEVHI [M65V]: -0.449 ± 0.067; for GQTTVQVRVPYRVVGLVVGPKGATIKRIQQQTHTYIVTPSRDKEPVFEVTGMPENVDRAREEIEGHI [M65G]: -0.049 ± 0.049.
On to GQTTVQVRVPYRVVGLVVGPKGATIKRIQQQTHTYIVTPSRDKEPVFEVTGMPENVDRAREEIESHI [M65S], for which the abundance fitness was determined as 0.12 ± 0.058.
Consider GQTTVQVRVPYRVVGLVVGPKGATIKRIQQQTHTYIVTPSRDKEPVFEVTGMPENVDRAREEIEIHI [M65I], for which the abundance fitness was -0.099 ± 0.18.
